Assay: soluble on expression in E. coli; label from the status in PepcDB or PDB records

Question: Which “soluble on expression in E. coli” value does the source give for “MGSDKIHHHHHHASGGVEKINHIVVIYLENRSFDNMFGRFPGADGLEAAKGAPVQVDREGKPYTVLPPILDEKTKQPDPRFPAQIANAPFDIGPHVGQSEKHRDLVHRFYQNMEQINGGRNDKFAAWSDAGGLVMGTYDTSNTRLWALAREFTLADNFFQAAFGGSFLNHFWLICACTPQYEAAPASIRAQLDGDGHLVKDGAVTPDGYPVNTIFSFYPPYPPSATDLAKRLPPQTAPNIGDRLSGKNVSWAWYSGGYAAALEGRNQGNFQYHHQPFVYFASTGEGTKAKARHLKDEAPLFESVAAGRLESVVFYKPVGDENQHPGYADLASGDAKAARLVDAIRASALWKDTAIIITYDENGGFWDHVAPPKGDRWGPGTRIPALIISPYAKRGFVDHTVYDTTSILKLIETRFGLPPLGRRDAVANDLTAAFDFTSERR” here?
Answer: not soluble

Question: Which “soluble on expression in E. coli” value does the source give for “MNRQIPKVPDAIELEYDLDEPPQKVWRAISIPAFREHWLPKEALAQPEAIKVSPGREVCYRLREDTPPFLESTVTFQIASNDRGGTSLRIIHDLPAIKSGRMTKAAANHNGSPIKLAALEHHHHHH” here?
Answer: not soluble

Question: With “MAHHHHHHVSASPPQRDRGSPPTRPLSEPQDVDAPAAGTVQALRQAVEAQEACVRLLRARQAAREALLRHTRRLLTADDSIEWPGSVEQLVRQVEASLHKLQQAHSEAAAPAATTADNVAPTSAPSRSPRNAAGDADPSADPLARIFHSGVEAQLAAVAEPPHTLPASTLASRSSTAKRRKEAGESGLTNAVSTTSPPPGGPFPPRSAAMTALLARSASRQEAGHAAMLAALSALELSLMSNSGATEVGRDVHNAEPAWLRQVDSDSANDDDAAPEEQQQEKEGNRGDIASSDYSDDFECGSSTSSGADD” as the sequence, how does the “soluble on expression in E. coli” value read?
Answer: soluble

Question: With “MSHAVSRLRDLRMARVAKPFFARGSRAERCPRCRVIPSHCLCAWRPKVVARSAMCLVMHDVEPLKPSNTGWLIADVIGDTTAFSWSRTEVDPQLLALLADPQWQPYIVFPGEFVAPERVVSEVRQEEGKRPLFILLDATWSEARKMFRKSPYLEHLPVLSLSPEKLSRYKLRRSKRDDHFCTAEVAALCLELAGDEQVSQVLDAYLDVFSTHYLSAKFQKAIDPDDDVHARLKPFVLEHHHHHH” as the sequence, how does the “soluble on expression in E. coli” value read?
Answer: not soluble

Question: With “MDTEPIQIDSDDSFDAGAPTSSHTMDRKSIIEKYQKLKEESKKLDDLAVEVRSLFMICKQMEECYTKRIDRIVATYGEIRYLHDGTILLLVTIHNITNQPMIDWVISINPTSIFPNSSSSCCQTINVGSLLPGIRKTFQCQLTCKDPPVLLQLSLLRTYQLGGIVKCFKVKLDPILVTAWNQAQRVERKNMETSFTSTIRLPNSLINLLSGSPDTVISVPQVFKSILNVPNVQEDHIVIKMSSAFVVGATGAVGSELVKLLAESTKFSKVVVLARRPVDGATGDKLIQKTVDFDKLEENAEDIQGVDVAFCALGTTRGKSGADGFYKVDHDYVMSAAKMAKENGVKQFVLVSSVGADASSRFLYPKTKGEVEKEIGELNFEKFVIMRPGLIEAKRPEFRIGEFLGKIVTAPLGLFSNRFSSSATAIAQAMINATQTEETGNQIWNNSKIVEESKKYTA” as the sequence, how does the “soluble on expression in E. coli” value read?
Answer: not soluble

Question: With “SLARELMRTQKEIFALILDFAKRTDSIRAVTLEGSRANPNIKQDKFCDYDISFFLNAKNLESFKNNEEWLKIFGNILMLQKPESMELYPPDLREGWFSFLVLFDDGVRIDLSLIPLADIEWYKDNERLMRVLLDKDNQFMPINEPSDSAFFIKPLTKQSFLDCCNELYWLYVCTHKDILRGELLLANAHLAMMREGLLILLSWRVALRQNNFAFSLGKEYKFLPHFLEPKERKTLYKCYKLGDLKQAQKTLKIMEKFFAKNARELIKVHFKDLHTLPYAKVAKQYVRILKHKIV” as the sequence, how does the “soluble on expression in E. coli” value read?
Answer: soluble

Question: With “MGSDKIHHHHHHMTVAIDRTKGDQSTPGNIIRGEGYALIRNSEATPDPDKVIHIPCADSFSVIVQLRDFNSHRLWNGNKLVFDGGHPRKSISIAYLGDEIKCQHRTTYDNVRFMLPRASIKEFLYEEGQRASAEPERIIGVDDPVVYHLALALLPSFARAGERNELFIEQVMLALLTHVQDRFASTQVPVCTGKGLAPWQLRRAKELIAGHLAEGVSVARLAEECGLSRSYFTKAFKCSTGVSPHEWLMRMRVDRAKELMLGSDEPLSQIGVACGFSDQPHFSRIFLRLAGASPSTWRRVKRQRTDAAL” as the sequence, how does the “soluble on expression in E. coli” value read?
Answer: not soluble

Question: Which “soluble on expression in E. coli” value does the source give for “MRFVFDIDGTLCFDGRLIDQTIIDTLLQLQHDGHELIFASARPIRDLLPVLPSVFHQHTLIGANGAMISQQSKISVIKPIHTDTYHHILKIIQKYELDYIIDDDWNYAAQLDAENAIFERLDPHKLASCIDVANIDTPIKIILLNIDPAQITTILDELNKYHQELEMIHHSNEYNIDITAQNINKYTALQYIFDADVKYIAFGNDHNDIFMLQHASSGYIIGPSEAYTHAILKLDKIKHINNNTQAICKVLKSYK” here?
Answer: not soluble

Question: Which “soluble on expression in E. coli” value does the source give for “MSLENDSLEITYLGKRYKISLNNTFSDEMKRTLKERFHNQELNALELLKDYLHESCQNEYLHNELQKLLEKISSCSIT” here?
Answer: not soluble

Question: Which “soluble on expression in E. coli” value does the source give for “MVYVAVLANIAGNFPALTAALEKIEELKEEGYEIEKYYILGNIVGLFPYPREVIEAIKNLAKTSNVKVIRGKYDQLIAMSDPHAGDPKYIDKLEIPDHLKATLKYTWEKLGHEGREYLRDLPIYLVDKIGKNEIFGVYGSPVNPFDGEILPDQPTSYYEAIMRPVKEYEMLLVASPRYPLDAMTMYGRVVCPGSIGFPPAREHKATFALVDAETLKVKFIEVEYDKKIIEDRIKLEKLPEEVIKILYHGGKA” here?
Answer: soluble

Question: With “METAVEVRAPAAAAWELLTDTRRWSEWGPSVSGVECPERFIGPGTIGWVRTVVGLRLPFRITEFEPGRRWCWSVAGIPATGHRVEPLGQERCRVVFEVPMPAAPYLAVCRVAALRIRSILEGLEHHHHHH” as the sequence, how does the “soluble on expression in E. coli” value read?
Answer: not soluble

Question: For “MIPKAFDGVKLLQFSDLHLGHYDSLERFYRIINQINKLQPDIVVFTGDLLHEANRYPHTEEVADALASIRAPLGKFSVYGNHDHGGYGTDIYRRLMERAGFRVLVNEHALVRRGQERIAVAGGDDMMLGQPDWAKMTSGIPASTYTIALVHEPDGALETCRYPIHVQLSGHSHGGQIQLPFIGPLITPPLSERYYEGFYHVGGLVLYVNRGLGTTRVPLRFFAPPELTVFSLIHRLEHHHHHH”, which “soluble on expression in E. coli” value is on record?
Answer: not soluble

Question: Which “soluble on expression in E. coli” value does the source give for “PEPGKKPVSAFSKKPRSVEVAAGSPAVFEAETERAGVKVRWQRGGSDISASNKYGLATEGTRHTLTVREVGPADQGSYAVIAGSSKVKFDLKVIE” here?
Answer: soluble

Question: With “LAMEVGSDSITLTSANTSADAKSVQLFEDFSCSHCSELSLATDADMKTQIEDGNLVVEIKPLNFLDRENIDGHSTHALAAALAVADSNDATLYWNFRAFLMEDQSEIYNQWSDDDFADGVEALGADSSVVDAIRNGDNIQRAYDLATANGEELTEETGSL” as the sequence, how does the “soluble on expression in E. coli” value read?
Answer: not soluble

Question: With “DESATSYANSAIAIELDGDQYVARIKDPLADHAKYTEAFHAVGLDIDLRLVPASPTAVGKFLSVRWSKSSGAGPARSASGGSLPTLKFTPENCGEPNQAGCELTMRVPADYTGNMSLSLGRRAEPGEEYKNPDWATAPGEMFGGVQLQDGRPVDAMLAEARRRDLTVEFSRIRPDAETGALSFEPLSADQVRGDWTVWHAWQVKAGVIRLLVTPERLPENPFEKGARPPS” as the sequence, how does the “soluble on expression in E. coli” value read?
Answer: not soluble

Question: For “MADVKEKINLLDVIPFRSENITAEKGSDGTVTIAFPRFKYEWMRRFLLPKGMSADIHVRLEDHGTAVWELIDGKRTVRRIIEELAEHFNYEENYESRITAYITQLQKDGFVKLVIEN”, which “soluble on expression in E. coli” value is on record?
Answer: not soluble

Question: With “MGSDKIHHHHHHMTTNNASPEAGHIMQTRTVDLDGQVLRVGIRPGSGDLPPLLMFNGIGANLELVEPFVDALPDVEVIIFDIPGAGGSPAPLFPYRFSNLCVMADKLLSHLGYAGPVDTLGVSWGGALAQEFARLYPQRCRRLVLAATSPGVLMVPGSPSVLTKMIGIRRYTDAEYLRRVGGDIYGGAFRDDPSLLDVHGGHMRPPRGRGYLYQLLAAWGWSSLPWLRALKQRTLVLHGSDDPIVPLINAKILSGCIPDSALHVFHDDGHLFLLTAARESARVVGEFLREGR” as the sequence, how does the “soluble on expression in E. coli” value read?
Answer: not soluble

Question: With “MSLKGTDRIKVLHMSDFHIDPRYATGSEGNCTSGLCCRRGNPVESLNSNYTVSVPAPRFGYFLCDTPWALGAAAVEAIPVLTGTDEDDAFNMTIFTGDMVSHDPYYELSRDYIEYTETALYDLWKQTLNPTSPLYAAIGNHDSYQQAFDAPSSLPGKLRKQSSWNYEHLAGLWESEGWIDGEVAQKVKTHYGAYSIQHATNLKIITINTDLWYRANIFAYINSTHPDNFGFLKFLAEELQEAEDCNSRAYIVGHVLSGYDGTNPLPGPTDIFYQIIDRYSHVIAGLFWGHTHEDQHMIYYANNGTKMSAETAQNVGWIGPSITPLTDLNSGFRLYEVDAETWDILDAHTWYSNVSTYSSLDGQLEVGPSYVYEYNTRQAYGGNISWPDNAPLNATWWHLVSQDMENDGGALVELYNAHQGKMSTLSPNCTSAECIEAKVCYLRSGSGTLALDNCKTGYGSVQEGHHHHHH” as the sequence, how does the “soluble on expression in E. coli” value read?
Answer: not soluble

Question: For “MSNASSTSSGRSSRAEVLWADVLSHIPFVKRFTTPDSRKEQKVRILSKNEVDEEDGVQLEQLIQNQEVILCHSSSMNFHQQCRGSVVDFEYIEKKVKVTVSSESDFPIWEDTDIWMQALSTPTSSLYAIDANTSVNSELIEDESVVQEQKEQISERAPLRLSDDIEEFGDVLVDVIKKKTDTKNNVFTITLGLTGFARFHAEIQLSKESTYYLNFDDGYEDDLASLASEEDILSGYQTIQNVDELCDKIGELTVTDVCIKTWFDILHNYAYIRLIVTSAKRKLQHFKLLTGHHVIIQSATSDRDTVLAVVSRVMKDGIVLTLQGVKKQTKNFVFSKNELFTIQIDHNYEDRLQKLTGKEEEHENLRRELINSDSDIRLHRSWKSNGKQYATFTSKNDAFKKIPFNTKFLLGKCWEAEGVLEKKADFIFAIRVADKNFSTPSTMTFEIKFTRNLVRNSKDFELSKAFYYVDFDLAHFVESDHCYSLLNAKSVNGKPDETVVKSCPIDEDLVFSVFPFQCGRRAEERRRGYQESQREVQSSTKKPDVKVEKNVKLEAPEKQNKRKDTALNPKEKYCAQKLEKQLNDQTKTPKQKPKQETSAGIKRESTQRPCVIPRTFETSNSKDASNKVPLQSVSEPKILLQDTNSRCAQPRKAVSHEGLKSHQQENVLKHLDNKHKFLCFVNIAKRIENDNGNPLVELSIGFDENGGKVQQSPWPLGIRMLLTDGLEKTEVKIQGDVQDTNGETVTFMIQQQLSDLDFLNSYKPKKLLACFREHGHNLK”, which “soluble on expression in E. coli” value is on record?
Answer: not soluble

Question: With “MAGISIGVGSTDYTDLVNKMVNLEGAAKTNQLATLEKTTTTRLTALGQFKSAISAFQTALTALNSNAVFMARTAKSSNEDILKASATQSAVAGTYQIQVNSLATSSKIALQAIADPANAKFNSGTLNISVGDTKLPAITVDSSNNTLAGMRDAINQAGKEAGVSATIITDNSGSRLVLSSTKTGDGKDIKVEVSDDGSGGNTSLSQLAFDPATAPKLSDGAAAGYVTKAANGEITVDGLKRSIASNSVSDVIDGVSFDVKAVTEAGKPITLTVSRDDAGVKDNVKKFVEAYNTLTKFINEQTVVTKVGEDKNPVTGALLGDASVRALVNTMRSELIASNENGSVRNLAALGITTTKDGTLEIDEKKLDKAISADFEGVASYFTGDTGLAKRLGDKMKPYTDAQGILDQRTTTLQKTLSNVDTQKADLAKRLAALQEKLTTQFNLLSAMQDEMTKRQKSITDNLASLPYGSGKKT” as the sequence, how does the “soluble on expression in E. coli” value read?
Answer: not soluble

Question: For “MKRLIGILLCNLFILTACSASVDKTSNSTKTTDYKIENGETLKVPEKPKRVAVLTGFYVGDFIKLGIKPIAVSDITKDSSILKPYLKGVDYIGENDVERVAKAKPDLIVVDAMDKNIKKYQKIAPTIPYTYNKYNHKEILKEIGKLTNNEDKAKKWIEEWDDKTRKDKKEIQSKIGQATASVFEPDEKQIYIYNSTWGRGLDIVHDAFGMPMTKQYKDKLQEDKKGYASISKENISKYAGDYIFLSKPSYGKFDFEKTHTWQNIEAVKKGHVISYKAEDYWFTDPITLEHLRSKLKKEILNKK”, which “soluble on expression in E. coli” value is on record?
Answer: not soluble

Reference: the DeepSol protein solubility set
